± gives the uncertainty stated by the source.
B1: Pituitary-specific positive transcription factor 1, residues 130 to 198; numbered along this chain, P28069 (parent)
chain: RELEKFANEFKVRRIKLGYTQTNVGEALAAVHGSEFSQTTICRFENLQLSFKNACKLKAILSKWLEEAE

Variants of: B1
Experiment: abundance fitness (aPCA) (normalised: wild type 0, dead -1); higher = more abundant; growth selection in yeast, the domain comes from the species named
Settings: Homo sapiens

| Variant | abundance fitness |
| --- | --- |
| S34M | -0.188 ± 0.097 |
| S34D | -0.015 ± 0.14 |
| S34P | 0.133 ± 0.07 |
| S34C | -0.431 ± 0.24 |
| I41N | -0.88 ± 0.16 |
| I41M | -0.446 ± 0.15 |
| I41L | -0.541 ± 0.083 |
| I41H | -0.56 ± 0.26 |
| I41V | -0.523 ± 0.12 |
| I41W | -0.502 ± 0.15 |
| V12L | -0.16 ± 0.059 |
| V12M | -0.045 ± 0.089 |
| V12D | -0.175 ± 0.12 |
| V12R | -0.101 ± 0.12 |
| C42Y | -0.243 ± 0.12 |
| C42N | 0.092 ± 0.093 |
| C42D | 0.325 ± 0.085 |
| A29H | -0.079 ± 0.2 |
| A29K | -0.202 ± 0.086 |
| A29S | -0.119 ± 0.069 |
| A29F | -0.509 ± 0.12 |

| Variant | abundance fitness |
| --- | --- |
| E35M | -0.162 ± 0.071 |
| E35V | -0.306 ± 0.055 |
| E35W | -0.265 ± 0.1 |
| E35N | -0.165 ± 0.13 |
| E35L | -0.222 ± 0.045 |
| T39W | -0.393 ± 0.095 |
| T39M | -0.147 ± 0.085 |
| T39P | -0.387 ± 0.14 |
| T39Y | -0.447 ± 0.33 |
| T39D | 0.118 ± 0.16 |
| K5P | -1.07 ± 0.16 |
| K5D | 0.048 ± 0.074 |
| K5Q | -0.172 ± 0.064 |
| K5R | -0.117 ± 0.043 |
| K5G | -0.478 ± 0.071 |
| G25M | -0.468 ± 0.11 |
| G25C | 0.005 ± 0.059 |
| G25R | -0.813 ± 0.087 |
| G25D | -0.647 ± 0.12 |
| G25L | -0.692 ± 0.088 |
| G25Y | 0.101 ± 0.12 |

| Variant | abundance fitness |
| --- | --- |
| G25W | -0.001 ± 0.066 |
| G25N | -0.911 ± 0.38 |
| G25A | 0.396 ± 0.057 |
| T22S | 0.106 ± 0.055 |
| T22H | 0.041 ± 0.075 |
| T22N | -0.063 ± 0.097 |
| T22P | -0.573 ± 0.45 |
| T22I | -0.525 ± 0.11 |
| T22G | -0.052 ± 0.1 |
| T22A | 0.357 ± 0.068 |
| T22M | 0.08 ± 0.082 |
| T22E | 0.491 ± 0.13 |
| A59G | 0.059 ± 0.037 |
| A59E | 0.214 ± 0.063 |
| A59D | 0.094 ± 0.083 |
| A59K | 0.025 ± 0.062 |
| A59N | 0.078 ± 0.076 |
| A59Q | -0.045 ± 0.064 |
| A59S | 0.007 ± 0.042 |
| A59W | -0.61 ± 0.1 |
| A27F | -0.437 ± 0.17 |

| Variant | abundance fitness |
| --- | --- |
| A27D | -0.221 ± 0.17 |
| A27N | -0.74 ± 0.41 |
| A27W | 0.053 ± 0.093 |
| T20I | -0.951 ± 0.17 |
| T20Q | -0.911 ± 0.2 |
| T20L | -0.683 ± 0.08 |
| T20R | -0.941 ± 0.13 |
| T20W | -1.12 ± 0.25 |
| T20C | -0.871 ± 0.21 |
| T20Y | -1.17 ± 0.45 |
| Q48K | -0.476 ± 0.18 |
| Q48T | -0.177 ± 0.11 |
| Q48E | -0.003 ± 0.07 |
| K56L | -0.466 ± 0.077 |
| K56N | -0.131 ± 0.11 |
| N53S | 0.115 ± 0.057 |
| N53A | 0.107 ± 0.049 |
| N53K | 0.21 ± 0.077 |
| N53L | -0.001 ± 0.049 |
| N53I | -0.027 ± 0.092 |

Source: the Human Domainome abundance scans (Beltran et al. 2025)
